According to IntAct's records for PubMed 36931259:

B1: 14-3-3 protein sigma (Homo sapiens), P31947 (parent)
chain: MERASLIQKAKLAEQAERYEDMAAFMKGAVEKGEELSCEERNLLSVAYKNVVGGQRAAWRVLSSIEQKSNEEGSEEKGPEVREYREKVETELQGVCDTVLGLLDSHLIKEAGDAESRVFYLKMKGDYYRYLAEVATGDDKKRIIDSARSAYQEAMDISKKEMPPTNPIRLGLALNFSVFHYEIANSPEEAISLAKTTFDEAMADLHTLSEDSYKDSTLIMQLLRDNLTLWTADNAGEEGGEAPQEPQS
partner: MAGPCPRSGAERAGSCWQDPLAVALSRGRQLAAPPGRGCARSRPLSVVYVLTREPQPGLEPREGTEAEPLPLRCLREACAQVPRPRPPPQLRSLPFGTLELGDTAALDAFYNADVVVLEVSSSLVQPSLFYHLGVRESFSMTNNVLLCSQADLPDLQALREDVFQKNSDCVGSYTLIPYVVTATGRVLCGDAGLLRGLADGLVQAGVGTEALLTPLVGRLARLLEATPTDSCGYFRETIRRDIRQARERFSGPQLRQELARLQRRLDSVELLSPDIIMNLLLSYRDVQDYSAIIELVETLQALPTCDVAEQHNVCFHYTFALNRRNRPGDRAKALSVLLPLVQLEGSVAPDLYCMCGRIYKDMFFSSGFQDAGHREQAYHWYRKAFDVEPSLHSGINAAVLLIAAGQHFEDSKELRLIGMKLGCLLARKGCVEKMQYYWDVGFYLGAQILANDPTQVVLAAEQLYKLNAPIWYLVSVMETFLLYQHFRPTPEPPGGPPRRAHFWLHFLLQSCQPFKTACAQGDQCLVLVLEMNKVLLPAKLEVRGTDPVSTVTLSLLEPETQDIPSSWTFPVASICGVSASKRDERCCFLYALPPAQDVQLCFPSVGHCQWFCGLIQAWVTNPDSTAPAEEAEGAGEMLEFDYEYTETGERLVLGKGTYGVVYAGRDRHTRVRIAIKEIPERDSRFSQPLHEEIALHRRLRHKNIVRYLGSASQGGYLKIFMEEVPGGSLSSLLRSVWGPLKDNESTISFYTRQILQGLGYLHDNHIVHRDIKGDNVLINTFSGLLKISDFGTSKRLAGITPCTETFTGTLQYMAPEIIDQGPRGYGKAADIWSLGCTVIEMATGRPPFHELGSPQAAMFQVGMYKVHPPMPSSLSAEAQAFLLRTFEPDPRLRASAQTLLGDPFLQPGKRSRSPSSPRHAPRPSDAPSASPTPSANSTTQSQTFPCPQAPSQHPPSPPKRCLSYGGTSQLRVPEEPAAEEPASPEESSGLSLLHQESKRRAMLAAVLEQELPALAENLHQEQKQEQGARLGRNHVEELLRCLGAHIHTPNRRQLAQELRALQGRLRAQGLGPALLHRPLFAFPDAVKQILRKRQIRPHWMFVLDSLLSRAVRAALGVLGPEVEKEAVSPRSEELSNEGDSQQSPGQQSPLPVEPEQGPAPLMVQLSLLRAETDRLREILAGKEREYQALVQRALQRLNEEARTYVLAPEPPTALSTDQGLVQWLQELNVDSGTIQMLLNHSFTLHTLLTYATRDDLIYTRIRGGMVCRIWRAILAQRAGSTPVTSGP
B2: 14-3-3 protein sigma (Homo sapiens), P31947 (parent)
chain: B1 chain
partner: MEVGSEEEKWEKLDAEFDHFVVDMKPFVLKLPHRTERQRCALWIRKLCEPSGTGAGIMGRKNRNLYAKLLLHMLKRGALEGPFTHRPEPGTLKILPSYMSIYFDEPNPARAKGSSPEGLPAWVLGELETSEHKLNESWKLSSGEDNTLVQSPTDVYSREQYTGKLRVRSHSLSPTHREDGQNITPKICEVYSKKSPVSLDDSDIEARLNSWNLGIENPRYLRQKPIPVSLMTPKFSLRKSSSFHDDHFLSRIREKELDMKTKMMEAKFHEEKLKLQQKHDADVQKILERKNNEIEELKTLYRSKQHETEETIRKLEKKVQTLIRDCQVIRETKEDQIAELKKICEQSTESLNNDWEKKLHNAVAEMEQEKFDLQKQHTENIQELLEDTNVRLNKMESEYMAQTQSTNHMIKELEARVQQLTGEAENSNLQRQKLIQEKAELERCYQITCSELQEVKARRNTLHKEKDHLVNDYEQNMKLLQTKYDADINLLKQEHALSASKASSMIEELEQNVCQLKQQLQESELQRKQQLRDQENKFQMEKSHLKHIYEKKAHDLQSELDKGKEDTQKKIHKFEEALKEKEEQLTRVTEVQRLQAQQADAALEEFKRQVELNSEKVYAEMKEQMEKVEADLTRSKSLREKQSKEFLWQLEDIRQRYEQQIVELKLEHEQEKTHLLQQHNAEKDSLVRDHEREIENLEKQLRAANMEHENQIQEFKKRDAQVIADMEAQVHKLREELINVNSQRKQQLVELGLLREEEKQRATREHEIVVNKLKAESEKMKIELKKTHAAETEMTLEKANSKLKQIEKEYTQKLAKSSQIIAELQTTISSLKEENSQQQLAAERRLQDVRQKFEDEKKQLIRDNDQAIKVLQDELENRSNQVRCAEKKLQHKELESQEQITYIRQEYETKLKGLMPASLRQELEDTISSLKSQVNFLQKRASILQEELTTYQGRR
B3: 14-3-3 protein sigma (Homo sapiens), P31947 (parent)
chain: B1 chain
partner: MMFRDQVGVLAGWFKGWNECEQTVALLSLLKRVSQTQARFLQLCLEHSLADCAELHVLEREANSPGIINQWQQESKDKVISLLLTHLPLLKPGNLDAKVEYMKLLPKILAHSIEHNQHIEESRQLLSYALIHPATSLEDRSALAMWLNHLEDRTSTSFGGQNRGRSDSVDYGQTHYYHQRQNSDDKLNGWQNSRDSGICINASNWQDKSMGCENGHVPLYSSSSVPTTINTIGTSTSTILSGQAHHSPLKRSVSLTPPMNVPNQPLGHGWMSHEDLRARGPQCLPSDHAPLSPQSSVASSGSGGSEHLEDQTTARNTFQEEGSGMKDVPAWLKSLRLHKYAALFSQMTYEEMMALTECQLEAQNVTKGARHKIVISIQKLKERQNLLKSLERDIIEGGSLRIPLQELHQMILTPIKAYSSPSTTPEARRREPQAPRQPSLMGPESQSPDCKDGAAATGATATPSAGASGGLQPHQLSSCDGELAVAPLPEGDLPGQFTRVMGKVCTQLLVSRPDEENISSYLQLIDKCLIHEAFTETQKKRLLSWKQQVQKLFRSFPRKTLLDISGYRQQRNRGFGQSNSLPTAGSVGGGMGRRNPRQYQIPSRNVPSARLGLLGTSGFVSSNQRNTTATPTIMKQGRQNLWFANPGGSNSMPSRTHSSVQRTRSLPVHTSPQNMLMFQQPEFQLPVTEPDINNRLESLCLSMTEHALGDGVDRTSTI
B4: 14-3-3 protein sigma (Homo sapiens), P31947 (parent)
chain: B1 chain
partner: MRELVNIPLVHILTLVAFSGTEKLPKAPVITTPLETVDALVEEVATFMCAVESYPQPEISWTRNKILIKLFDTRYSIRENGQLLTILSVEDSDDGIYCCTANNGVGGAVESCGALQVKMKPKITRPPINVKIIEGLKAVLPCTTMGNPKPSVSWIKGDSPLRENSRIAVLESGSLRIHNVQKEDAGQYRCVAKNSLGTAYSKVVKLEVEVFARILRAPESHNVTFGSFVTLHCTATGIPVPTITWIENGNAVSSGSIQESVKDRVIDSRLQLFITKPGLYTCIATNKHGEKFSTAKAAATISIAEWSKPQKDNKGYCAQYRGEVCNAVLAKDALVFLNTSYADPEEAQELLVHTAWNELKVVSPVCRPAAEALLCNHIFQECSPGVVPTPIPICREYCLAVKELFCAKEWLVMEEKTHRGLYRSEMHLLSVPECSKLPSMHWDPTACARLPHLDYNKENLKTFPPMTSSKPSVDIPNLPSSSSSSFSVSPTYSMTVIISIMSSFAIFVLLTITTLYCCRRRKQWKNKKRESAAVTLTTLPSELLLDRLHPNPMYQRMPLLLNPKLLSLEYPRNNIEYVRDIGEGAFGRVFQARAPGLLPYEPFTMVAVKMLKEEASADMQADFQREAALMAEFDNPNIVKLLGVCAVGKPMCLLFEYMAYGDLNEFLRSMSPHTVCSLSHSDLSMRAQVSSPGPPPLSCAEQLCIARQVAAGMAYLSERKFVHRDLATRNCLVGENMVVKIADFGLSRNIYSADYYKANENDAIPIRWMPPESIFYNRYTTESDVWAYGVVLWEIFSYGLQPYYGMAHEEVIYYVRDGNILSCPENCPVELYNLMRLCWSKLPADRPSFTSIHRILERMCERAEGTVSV
B5: 14-3-3 protein sigma (Homo sapiens), P31947 (parent)
chain: B1 chain
partner: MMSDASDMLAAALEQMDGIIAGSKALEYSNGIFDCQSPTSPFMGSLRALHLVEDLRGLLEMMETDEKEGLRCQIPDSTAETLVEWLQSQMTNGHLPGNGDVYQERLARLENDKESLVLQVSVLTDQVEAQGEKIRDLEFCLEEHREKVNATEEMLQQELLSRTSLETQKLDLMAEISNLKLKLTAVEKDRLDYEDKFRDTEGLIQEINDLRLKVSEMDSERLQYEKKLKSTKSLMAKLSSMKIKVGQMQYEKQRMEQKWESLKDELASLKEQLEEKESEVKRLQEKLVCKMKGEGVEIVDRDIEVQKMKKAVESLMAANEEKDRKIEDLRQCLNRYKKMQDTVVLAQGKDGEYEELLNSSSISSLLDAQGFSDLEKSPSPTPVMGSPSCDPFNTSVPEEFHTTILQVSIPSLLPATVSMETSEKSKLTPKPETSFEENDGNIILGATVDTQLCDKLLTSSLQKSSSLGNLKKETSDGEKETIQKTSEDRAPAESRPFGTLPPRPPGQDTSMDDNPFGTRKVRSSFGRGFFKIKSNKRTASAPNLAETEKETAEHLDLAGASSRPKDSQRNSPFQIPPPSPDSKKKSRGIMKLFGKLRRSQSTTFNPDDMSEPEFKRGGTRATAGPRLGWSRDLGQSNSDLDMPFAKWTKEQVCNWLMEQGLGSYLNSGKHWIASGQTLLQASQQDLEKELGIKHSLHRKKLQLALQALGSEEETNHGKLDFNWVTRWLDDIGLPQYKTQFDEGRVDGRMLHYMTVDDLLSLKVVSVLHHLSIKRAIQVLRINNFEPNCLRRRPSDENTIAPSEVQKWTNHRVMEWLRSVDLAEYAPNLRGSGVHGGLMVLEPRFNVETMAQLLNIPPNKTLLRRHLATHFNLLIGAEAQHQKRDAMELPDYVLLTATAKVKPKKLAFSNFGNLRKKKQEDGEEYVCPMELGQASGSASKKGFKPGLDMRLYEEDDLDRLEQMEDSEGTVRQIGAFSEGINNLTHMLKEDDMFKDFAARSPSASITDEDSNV
B6: 14-3-3 protein sigma (Homo sapiens), P31947 (parent)
chain: B1 chain
partner: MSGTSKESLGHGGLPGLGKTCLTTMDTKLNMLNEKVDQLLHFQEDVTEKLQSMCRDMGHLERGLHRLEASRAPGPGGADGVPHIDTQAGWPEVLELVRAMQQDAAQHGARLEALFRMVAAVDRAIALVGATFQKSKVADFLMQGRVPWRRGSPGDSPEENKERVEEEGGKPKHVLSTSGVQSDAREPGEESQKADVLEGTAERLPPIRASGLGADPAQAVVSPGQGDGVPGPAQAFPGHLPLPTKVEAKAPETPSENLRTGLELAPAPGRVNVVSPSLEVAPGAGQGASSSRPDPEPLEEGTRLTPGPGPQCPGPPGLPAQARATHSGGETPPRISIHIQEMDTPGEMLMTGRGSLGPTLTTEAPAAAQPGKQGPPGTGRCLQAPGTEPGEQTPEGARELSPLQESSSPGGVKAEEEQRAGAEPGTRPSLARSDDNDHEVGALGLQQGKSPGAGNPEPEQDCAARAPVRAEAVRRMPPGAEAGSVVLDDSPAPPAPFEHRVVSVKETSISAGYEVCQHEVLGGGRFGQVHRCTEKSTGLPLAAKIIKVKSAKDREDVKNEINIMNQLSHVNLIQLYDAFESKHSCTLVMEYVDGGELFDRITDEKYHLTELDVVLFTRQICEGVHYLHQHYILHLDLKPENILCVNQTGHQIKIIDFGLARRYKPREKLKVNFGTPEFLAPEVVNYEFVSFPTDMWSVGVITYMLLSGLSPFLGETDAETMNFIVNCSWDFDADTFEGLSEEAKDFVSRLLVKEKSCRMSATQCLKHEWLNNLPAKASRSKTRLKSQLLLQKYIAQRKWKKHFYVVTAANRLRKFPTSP

Variants of: B1
Details: with m3k6_human MAP3K6, O95382

Variant	effect of a mutation on the interaction
K49E;R56E;V178D	decreasing interaction strength

Variants of: B2
Details: with ce112_human CEP112, Q8N8E3

Variant	effect of a mutation on the interaction
K49E;R56E;V178D	decreasing interaction strength

Variants of: B3
Details: with smag1_human SAMD4A

Variant	effect of a mutation on the interaction
K49E;R56E;V178D	decreasing interaction strength

Variants of: B4
Details: with musk_human MUSK

Variant	effect of a mutation on the interaction
K49E;R56E;V178D	decreasing interaction strength

Variants of: B5
Details: with lipb1_human PPFIBP1, Q86W92

Variant	effect of a mutation on the interaction
K49E;R56E;V178D	decreasing interaction strength

Variants of: B6
Details: with mylk3_human MYLK3, Q32MK0

Variant	effect of a mutation on the interaction
K49E;R56E;V178D	decreasing interaction strength
